Data taken from PMC13043311, “2′-O-Methyl-guanosine RNA fragments antagonize TLR7 and TLR8 to limit autoimmunity”.
Where a chain is given by its changes, count along the chain named.

Tests used:
Conditions in all cases: protein: recombinant; chain copies: 2; single-stranded
TLR7 F507S = molecular target: T1, TLR7 F507S (Macaca mulatta, UniProt B3Y653 27-839, F507S); experiment: SPR; mean computed from runs 36±1, 46±2, 42±6; SPR with recombinant TLR7/TLR8; buffer, pH and temperature not in the material
T1 sequence: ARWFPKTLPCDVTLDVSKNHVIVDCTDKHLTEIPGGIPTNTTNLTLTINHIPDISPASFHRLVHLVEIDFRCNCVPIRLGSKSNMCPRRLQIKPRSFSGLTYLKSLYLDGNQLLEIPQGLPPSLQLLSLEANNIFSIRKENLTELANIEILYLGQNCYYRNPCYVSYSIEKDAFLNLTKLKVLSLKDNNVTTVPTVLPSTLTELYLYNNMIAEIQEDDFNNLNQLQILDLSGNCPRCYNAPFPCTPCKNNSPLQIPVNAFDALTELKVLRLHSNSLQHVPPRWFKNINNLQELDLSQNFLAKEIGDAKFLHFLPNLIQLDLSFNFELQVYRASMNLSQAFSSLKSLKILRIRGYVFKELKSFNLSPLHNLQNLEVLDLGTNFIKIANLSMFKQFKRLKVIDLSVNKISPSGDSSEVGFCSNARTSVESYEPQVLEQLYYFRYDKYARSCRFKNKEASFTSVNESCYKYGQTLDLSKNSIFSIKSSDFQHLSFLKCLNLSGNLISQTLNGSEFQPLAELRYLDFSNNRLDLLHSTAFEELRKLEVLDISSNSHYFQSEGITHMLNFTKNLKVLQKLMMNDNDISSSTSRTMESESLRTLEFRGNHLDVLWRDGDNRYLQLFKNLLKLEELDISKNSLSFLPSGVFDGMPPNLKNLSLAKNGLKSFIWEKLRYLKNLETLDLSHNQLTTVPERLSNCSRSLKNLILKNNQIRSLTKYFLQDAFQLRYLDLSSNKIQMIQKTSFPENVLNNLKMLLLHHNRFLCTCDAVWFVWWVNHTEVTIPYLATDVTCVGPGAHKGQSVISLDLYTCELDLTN

TLR7 WT (mmTLR7) [1] = molecular target: T2, TLR7 WT (mmTLR7) (Macaca mulatta, UniProt B3Y653 27-839); experiment: SPR; mean computed from runs 0.9±0.3, 2±0.5, 1.4±0.6; SPR with recombinant TLR7/TLR8; buffer, pH and temperature not in the material
T2 sequence: T1 sequence with S481F

TLR7 S530A = molecular target: T3, TLR7 S530A (Macaca mulatta, UniProt B3Y653 27-839, S530A); experiment: SPR; mean computed from runs 0.1±0.02, 0.2±0.04, 0.2±0.06; SPR with recombinant TLR7/TLR8; buffer, pH and temperature not in the material
T3 sequence: T1 sequence with S481F, S504A

TLR7 WT (mmTLR7) [2] = molecular target: T2, TLR7 WT (mmTLR7); experiment: SPR; control of the nucleoside series; mean computed from runs 1±0.3, 3±0.9, 5±0.8; SPR with recombinant TLR7/TLR8; buffer, pH and temperature not in the material

**Q.** With GUC (XNA, 2'-OMe G1, RNA U2 C3; phosphorothioate linkages) [mGrUrC PS] as the binder, how does the Kd (TLR7 F507S) read?
**A.** Its Kd is 41300 nM.

**Q.** And the Kd (TLR7 WT (mmTLR7) [1])?
**A.** Its Kd is 1430 nM.

**Q.** And the Kd (TLR7 S530A)?
**A.** Its Kd is 170 nM.

**Q.** What about the Kd (TLR7 WT (mmTLR7) [2]) of the same binder?
**A.** Its Kd is 3000 nM.
